Laboratory results reported in PMC11621822.

Target: recombinant heat shock protein 70 cognate 3 (Hsc70-3), protein encoded by AAEL017349 (Aedes aegypti)
Experiment: ELISA

recombinant E protein Receptor (EPrRec), protein encoded by AAEL011180 (natural protein)
EC50: 70.7 nM
